Reference: US10202593B2, “Evolved sortases and uses thereof” (President and Fellows of Harvard College, priority 2013, dated 2019)
Like-named read-outs stand apart in the source and are kept apart here.

Legend:
Assay type in all cases: biochemical
LPEAG = experiment: In vitro sortase kinetics HPLC assay, LPEAG substrate
Protocol: (§1) See below for details on sortase expression and purification, and on the synthesis of Abz-LPETGK(Dnp)-CONH2 (SEQ ID NO: 19). […] Reactions were initiated with the addition of enzyme and incubated at 22.5° C. for 3 to 20 minutes before quenching with 0.5 volumes of 1 M HCl. Five to ten nmol of peptide from the quenched reactions were injected onto an analytical reverse-phase Eclipse XDB-C18 HPLC column (4.6×150 mm, 5 μm, Agilent Technologies) and chromatographed using a gradient of 10 to 65% acetonitrile with 0.1% TFA in 0.1% aqueous TFA over 13 minutes. Retention times under these conditions for the Abz-LPETGK(Dnp)-CONH2 (SEQ ID NO: 19) substrate, the released GKDnp peptide, and the Abz-LPETGGG-COOH (SEQ ID NO: 20) product were 12.8, 10.4, and 9.1 min, respectively. To calculate the percent conversion, the ratio of the integrated areas of the Abz-LPETGGG-COOH (SEQ ID NO: 20) and Abz-LPETGK(Dnp)-CONH2 (SEQ ID NO: 19) peptide Abs220 peaks was compared to a standard curve generated by mixing the product and starting peptide in known ratios. To determine […] and Km, reaction rates were fit to the Michaelis-Menten equation using OriginPro 7.0 software. All kinetics values reported represent the average of at least three measurements. Percent conversion was also calculated by using the ratio of the integrated areas of the GK(Dnp)-CONH2 and Abz-LPETGK(Dnp)-CONH2 peptide Abs355 peaks were compared directly (Example 5). To determine kcat and Km, LPETG, reaction rates were fit to the Michaelis-Menten equation using Microsoft Excel using the Solver add-in. To determine Km,GGG and KH, reaction rates were fit to the modified Michaelis-Menten, for which KH is as defined when KH<<Km,GGG.
(§2) Assays to determine eSrtA, eSrtA(2A-9) and eSrtA(4S-9) specificity were performed by preparing 10 μM stocks of Abz-LXEXGK(Dnp) (SEQ ID NO: 75) peptides in 300 mM Tris pH 7.5, 150 mM NaCl, 5 mM CaCl2, 5% v/v DMSO, and 100 mM Gly-Gly-Gly-COOH (GGG). Reactions were performed by adding eSrtA(2A-9) to a final concentration of 450 nM, eSrtA(4S-9) to a final concentration of 115 nM or eSrtA to a final concentration of 47.5 nM and a final volume of 100 μL, then incubating at 22.5° C. for 15 minutes. Reactions were quenched by the addition of 0.2 volumes of 5 M HCl, then were injected onto an analytical reverse-phase Eclipse XDB-C18 HPLC column (4.6×150 mm, 5 μm, Agilent Technologies) and chromatographed using a gradient of 10 to 65% acetonitrile with 0.1% TFA in 0.1% aqueous TFA over 13 minutes. Retention times under these conditions for the Abz-LPETGK(Dnp)-CONH2 (SEQ ID NO: 19) substrate, the released GKDnp peptide, and the Abz-LPETGGG-COOH (SEQ ID NO: 20) product were 12.8, 10.4, and 9.1 min, respectively, while the remaining Abz-LXEXGK(Dnp)-CONH2 (SEQ ID NO: 74) substrates varied in retention time between 9 and 13 minutes. To calculate the percent conversion, the ratio of the integrated areas of the GK(Dnp)-CONH2 and Abz-LPETGK(Dnp)-CONH2 (SEQ ID NO: 19) peptide Abs355 peaks were compared directly. Subsequent determination of kcat/Km and KH were performed as described for in vitro SrtA characterization.
(§3) The original pentamutant comprising the mutations P94R, D160N, D165A, K190E, and K196T is referred to as eSrtA. Sortase variants herein were evolved using eSrtA as the parent enzyme in the evolution experiments. In some cases, an evolved sortase comprises a N160K mutation instead of a D160N or a T196S mutation instead of a K196T. Parameters are reported with their standard deviations as determined from three technical replicates. kcat, Km and kcat/Km parameters were determined at 100 mM GGG concentration, while Km,GGG and KH parameters were determined at 1 mM concentration of the listed substrate.

LPECG = experiment: In vitro sortase kinetics HPLC assay, LPECG substrate
Protocol: as §1, §2, §3

[1] = tested on: GGG-functionalized amphiphilic diblock polypeptide; experiment: GGG-diblock functionalization; details: Alexa Fluor 488-LAETG or 647-LPESG, 1 hour
Protocol: Amphiphilic diblock polypeptide (Diblock) was co-incubated with Alexa Fluor® 488-LAETG (SEQ ID NO: 5), Alexa Fluor® 647-LPESG (SEQ ID NO: 3), eSrtA(2A-9), and/or eSrtA(4S-9). The reactions were analyzed by denaturing gel electrophoresis and visualized using either Coomassie stain (top), 488 fluorescence (bottom, blue), or 647 fluorescence (bottom, red). Magenta denotes the overlap of blue and red fluorescence signals.
GGG-functionalized recombinant amphiphilic diblock polypeptide (Diblock), GGG-Diblock, was used as a substrate to test the orthogonality of the two evolved sortases in solution. GGG-Diblock based on elastin-mimetic polypeptide sequences was prepared as previously described (Kim et al. Self-Assembly of Thermally Responsive Amphiphilic Diblock Copolypeptides into Spherical Micellar Nanoparticles. Angewandte Chemie International Edition 49, 4257-4260, doi:10.1002/anie.201001356 (2010)) with slight changes in sequence by genetically incorporating an N-terminal triglycine motif. A complete amine acid sequence is GGG-VPGEG-[(VPGVG)(VPGEG)(VPGVG)(VPGEG)(VPGVG)]10-CCCCGG-[(IPGVG)2VPGYG(IPGVG)2]15-VPGYG (SEQ ID NO: 75). In a 0.6 mL Eppendorf tube, GGG-functionalized Diblock (10 μM) was mixed with fluorophore-peptide (0.1 μM), evolved sortase (15 μM) and CaCl2 (100 mM), then reacted for 1 hour at room temperature. […]

[2] = Sub LPEAG, 100 mM GGG, read-out: Km
[3] = Sub LPECG, 100 mM GGG, read-out: Km

Sequence of GGG-functionalized amphiphilic diblock polypeptide (as listed by the source): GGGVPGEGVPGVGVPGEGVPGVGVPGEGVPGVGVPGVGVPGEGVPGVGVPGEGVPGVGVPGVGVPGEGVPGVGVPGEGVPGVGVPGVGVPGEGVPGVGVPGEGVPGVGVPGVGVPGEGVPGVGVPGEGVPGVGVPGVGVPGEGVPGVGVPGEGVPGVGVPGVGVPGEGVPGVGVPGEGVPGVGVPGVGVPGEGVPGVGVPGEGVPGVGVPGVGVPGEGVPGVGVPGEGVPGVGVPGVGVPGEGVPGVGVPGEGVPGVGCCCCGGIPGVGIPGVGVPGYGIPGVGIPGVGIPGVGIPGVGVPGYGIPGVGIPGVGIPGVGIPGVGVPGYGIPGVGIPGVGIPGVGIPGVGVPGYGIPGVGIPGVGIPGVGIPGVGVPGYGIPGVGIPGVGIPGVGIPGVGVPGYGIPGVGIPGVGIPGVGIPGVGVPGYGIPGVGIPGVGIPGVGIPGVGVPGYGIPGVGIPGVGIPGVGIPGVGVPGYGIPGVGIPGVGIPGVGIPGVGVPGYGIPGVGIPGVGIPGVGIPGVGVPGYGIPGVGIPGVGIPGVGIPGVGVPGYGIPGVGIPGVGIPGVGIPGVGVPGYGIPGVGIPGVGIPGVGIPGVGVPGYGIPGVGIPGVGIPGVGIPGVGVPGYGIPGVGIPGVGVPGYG

Row | Molecule | KH (LPEAG; 1 mM LPEAG) [µM] | Km (LPEAG; 1 mM LPEAG, read-out: Km,GGG) [mM] | Kcat (Hz) (LPEAG; Sub LPEAG, 100 mM GGG) | Km (LPEAG; [2]) [mM] | activity for LPECG compared with LPETG (LPECG) | KH (LPECG; 1 mM LPECG) [µM] | Km (LPECG; 1 mM LPECG, read-out: Km,GGG) [mM] | Kcat (Hz) (LPECG; Sub LPECG, 100 mM GGG) | Km (LPECG; [3]) [mM] | peptide-diblock conjugation [1]
1 | eSrtA (protein) QAKPQIPKDKSKVAGYIEIPDADIKEPVYPGPATREQLNRGVSFAEENESLDDQNISIAGHTFIDRPNYQFTNLKAAKKGSMVYFKVGNETRKYKMTSIRNVKPTAVEVLDEQKGKDKQLTLITCDDYNEETGVWETRKIFVATEVK | 599 ± 41 | 48.4 ± 3.1 | 0.74 ± 0.04 | 0.0834 ± 0.0006 | exceeds that of LPETG | 620 ± 150 | 57 ± 33 | 3.5 ± 0.3 | 0.0725 ± 0.0056 | –
2 | eSrtA(4S-9): P94R, N98D, S102C, A104V, A118T, F122A, K134R, F144L, D160N, D165A, I182V, E189F, K190E, K196T (protein) QAKPQIPKDKSKVAGYIEIPDADIKEPVYPGPATREQLDRGVCFVEENESLDDQNISITGHTAIDRPNYQFTNLRAAKKGSMVYLKVGNETRKYKMTSIRNVKPTAVEVLDEQKGKDKQLTLVTCDDYNFETGVWETRKIFVATEVK | 193 ± 30 | 41 ± 4 | 1.90 ± 0.01 | 0.154 ± 0.003 | exceeds that of LPETG | 120 ± 23 | 55 ± 1.4 | 5.0 ± 0.6 | 0.069 ± 0.013 | no detectable off-target substrate conjugation
3 | eSrtA(2A-9): P94R, S102C, A104H, E105D, K138P, K152I, N160K, K162H, T164N, D165A, K173E, I182V, K190E, T196S (protein) QAKPQIPKDKSKVAGYIEIPDADIKEPVYPGPATREQLNRGVCFHDENESLDDQNISIAGHTFIDRPNYQFTNLKAAKPGSMVYFKVGNETRIYKMTSIRKVHPNAVEVLDEQEGKDKQLTLVTCDDYNEETGVWESRKIFVATEVK | – | – | – | – | – | – | – | – | – | no detectable off-target substrate conjugation
